Experimental data: the supplement of paper PMC10724198
± gives the standard deviation of the averaged measurements.

test system: Saccharomyces cerevisiae; assay: protein stability index of tFT-peptide fusion (C-terminal peptide) (PSI (0-1 scale)); higher = more stable (slower turnover); conditions: genetic background: wild type; temperature: 30 C
Procedure: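 Multiplexed protein stability (MPS) profiling in S. cerevisiae. Random 12-aa peptides (tFT-X12 library) are fused to the C-terminus of a sfGFP-mCherry tandem fluorescent timer, after mCherry and a GGGS linker. Cells are FACS-sorted into 8 mCherry/sfGFP bins and deep-sequenced. The protein stability index (PSI) is the read-weighted bin average, scaled from 0 (unstable) to 1 (stable). Only peptides with >10 reads are reported; cells were grown at 30 °C in SC-His with glucose.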
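Note: PSI is a weighted mean of sequencing reads over stability bins, variants kept only with over 10 reads, mCherry proximal and sfGFP distal, peptide attached via GGGS linker.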

Sequence | protein stability index
FRLGIKFYTLAV | 0.514 ± 0.01
APAWSFFGLDKS | 0.702 ± 0.015
SALLPSPGPPAF | 0.656 ± 0.089
EELGGGTRNYEG | 0.693 ± 0.018
GREGKEKKKPRR | 0.696 ± 0.097
ERAKMYPKKKIR | 0.64 ± 0.067
RLTRRSCLFSIT | 0.785 ± 0.056
MIKAPGHKGTIN | 0.684 ± 0.02
PPSLVSPSSPPS | 0.708 ± 0.047
LRPKESQEYIHR | 0.652 ± 0.079
DSSKFYTPATLL | 0.693 ± 0.048
GRRLGREWGDAP | 0.721 ± 0.12
PLLPRSILSATG | 0.641 ± 0.043
PAPPPPPRPPPS | 0.655 ± 0.008
LSSLYSSLTFFL | 0.651 ± 0.014
IGLSPICAAAYT | 0.6515 ± 0.001
GLMSVRYSGTGV | 0.6743 ± 0.006
AFPLPPPPPPKP | 0.708 ± 0.012
LRDYLLWRECTL | 0.692 ± 0.033
NNEKIEQRYSMK | 0.711 ± 0.019
PPTPPLVPPTRH | 0.739 ± 0.016
LLPSLLRPQPPA | 0.699 ± 0.034
NRFFFRHGCVVF | 0.691 ± 0.031
KKKNQLSKVTKR | 0.702 ± 0.031
SPFLPAHPPPTA | 0.714 ± 0.065

Sequence | protein stability index
SILEIFSQGTEM | 0.693 ± 0.01
CAHKRTPRLGPE | 0.66 ± 0.077
IGTSGFFSSQAS | 0.743 ± 0.065
SRPFLPPSPRPA | 0.757 ± 0.11
LSPFGTLLNAPP | 0.782 ± 0.075
IPPDAFAQLTYS | 0.733 ± 0.0093
GGNRRIKEKSRL | 0.785 ± 0.016
WSPGGGPLGLYE | 0.743 ± 0.018
CTSCDQRLQRWG | 0.728 ± 0.033
RVSACVDGHVFL | 0.643 ± 0.0071
PPPPPPALPEYQ | 0.708 ± 0.01
VMFACAGVETRR | 0.745 ± 0.037
KKNKEKGEREKK | 0.615 ± 0.058
KKKRNSYMKGNR | 0.681 ± 0.1
GGVGGCARVWPR | 0.654 ± 0.061
LFFLLCHVGSFR | 0.516 ± 0.0085
SRIASKNRKRKR | 0.774 ± 0.024
HTGKAATRKVIK | 0.634 ± 0.024
RARCFGGFCAIP | 0.724 ± 0.088
PAPAPSPSFRDH | 0.708 ± 0.094
AHEAHPITPRGP | 0.695 ± 0.042
QKIIKKIQTIVD | 0.697 ± 0.027
PPPPHFLVPLSP | 0.695 ± 0.021
GVFCHILAFLWC | 0.512 ± 0.019
GEGRRWGSFWVG | 0.6701 ± 0.0039

Sequence | protein stability index
RPPPPSPRPTRR | 0.755 ± 0.032
GLVRGGCGTVGG | 0.774 ± 0.18
DWKLPRIEREST | 0.678 ± 0.024
RKGVSLAILLGP | 0.67 ± 0.055
VSFCRVLQSSQS | 0.692 ± 0.021
MSSTLCMLPFSV | 0.771 ± 0.012
IECKKIDKKIKE | 0.688 ± 0.035
NSPTYEEKERHL | 0.82 ± 0.15
VHVSRHGSSIAF | 0.74 ± 0.008
FGRDTDIYLASL | 0.691 ± 0.037
PPPPPTAPPPSR | 0.733 ± 0.055
AGLDRFLVIWGI | 0.6106 ± 0.0061
RGFSLSCCERSI | 0.749 ± 0.026
LWKLLNTVKNAA | 0.62 ± 0.01
VSNVSGKEYINV | 0.681 ± 0.038
WIISERDRTEQT | 0.733 ± 0.06
CCDWLFCVGVAG | 0.558 ± 0.0079
NPTPPNLRSNLF | 0.6877 ± 0.0055
HKKATRPPTGGN | 0.604 ± 0.052
SSLRSFPLLEHT | 0.6857 ± 0.0012
LVWFQYFRLWGG | 0.61 ± 0.029
PPLLLTSLMLLP | 0.655 ± 0.034
HFLVGPLSPLLS | 0.662 ± 0.019
PDRQVTAFPCFW | 0.6787 ± 0.0051
SLPPPPSPVSLF | 0.611 ± 0.07

Sequence | protein stability index
LGLPSSLGPSDF | 0.682 ± 0.011
PPPPFLLPPLLD | 0.707 ± 0.012
FQMLPLGHQFPQ | 0.736 ± 0.0087
DTPLIYSLKSEC | 0.7511 ± 0.0022
NPVFPPPPHSQL | 0.75 ± 0.18
SSPAYPYWTRIF | 0.777 ± 0.14
FSVPPLPLPPRL | 0.757 ± 0.095
QGSAGRHVRTNL | 0.701 ± 0.06
APPSPTSPPTPP | 0.642 ± 0.1
LYPGYIVVANYK | 0.661 ± 0.032
SFAPPPPPPLPS | 0.686 ± 0.025
PFVCPHLPAPPP | 0.791 ± 0.094
CPLAAGSFSSLS | 0.6608 ± 0.0009
ATYTTQQLPNYH | 0.685 ± 0.011
RWGVRFWVGDSV | 0.687 ± 0.017
ARPPRASRISSL | 0.81 ± 0.044
PSLPLPPPPAHP | 0.65 ± 0.02
PLFLYCRSAPRL | 0.817 ± 0.025
GGGGGCVGRLWG | 0.742 ± 0.026
ACSSSLPPSSPP | 0.671 ± 0.0078
AALRLVEDKSTW | 0.71 ± 0.059
GTPPRSGLPLCT | 0.711 ± 0.0099
PPPPTSPTSPEL | 0.692 ± 0.051
